# B1: TPR t1 (parent)
# chain: GACCAAUCUGCCCUCAGAGCUCGAGAACAUCUUCGGAUGCAGAGGAGGCAGGCUUCGGUGGCGCGAUAGCGCCAACGUCCUCAACCUCCAAUGCAUCCCACCACAUGAUGAUGCCUGAAGAGCCUUGGUUUUUUG
# Variants of: B1
# Assay: polymerase ribozyme fitness, log enrichment relative to wild type (log ratio); higher = more active; in vitro selection for triplet polymerase activity
# How it was run: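 After PCR construction and transcription, each subunit's mutant library from a heterodimeric triplet polymerase ribozyme was annealed with a biotinylated primer, the partner subunit and triplets. Incubation was frozen, at −7 °C, and extended constructs were gel-excised, bound to streptavidin beads and amplified by RT-PCR, in one selection round done in triplicate. Fitness is the logarithm of a genotype's enrichment divided by that of the wild type, from inverse-variance-weighted replicate averages of Illumina-sequenced inputs and outputs. The base of the logarithm is 2, and genotypes needed ≥10 input reads and ≥1 read per output.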
row,Variant,polymerase ribozyme fitness (log ratio)
1,C70G A105G,-5.16
2,C8G G35U,-3.78
3,C4G C11G C49A G51C G58A C73U C79U,-4.64
4,G47C U126A,-4.53
5,A16G G39A C115A,-2.22
6,C11G C12G C104A U106A,-3.92
7,A5U C8G G19A A43U U54A C70G,-4.96
8,C4G A43U A46G C62U G63A U78C C114U G117U,-5.92
9,C3A C89U U96G C124A,0.0977
10,C15U C56A,-1.78
11,A37U A90G C97A,-5.5
12,A29C C40U A41U G58C G71U C104U U129A,-6.05
13,G47A A50U C53A U78G,-2.33
14,C20U G93A C101G G113C,-4.09
15,C53U G57U C101A U109G,-6.08
16,C86U,-0.178
17,A5U U7A A91G C114A,-1.75
18,A18U C40A A41U,-3.61
19,A5G G45A C49A G69U G93A U130G U131A,-2.39
20,A27U A37C U59C,-3.36
21,U32C G63A U78G C98U G117U,-6.07

row,Variant,polymerase ribozyme fitness (log ratio)
1,C72U C76A,-0.968
2,A50C G69A G120A G127A,-3.94
3,A46C C101G,-2.34
4,C8U U109A,-5.29
5,C72U A83C C114U,-1.96
6,C8G A16C G61C G71A G120C,-6.1
7,A26U U59G C62U,-4.33
8,G48U C98U,-1.96
9,A41U C53U U112G,-2.23
10,A50U G52A,-2.66
11,A46G C88U,-0.84
12,G60U A108C C124A,-5.47
13,G10U C40A G77A G128U,-3.6
14,U9A G52A C56A,-1.03
15,U9G G36A C70U,-0.939
16,A46U C85U,-2.5
17,C114A G117U C124U,-6.08
18,G44A C62A C88U C89U G128C U129G,-2.95
19,C73U A83U G110A G128U,-4.9
20,C12U G69U,1.01
21,G52U U54G G69C,-4.27

row,Variant,polymerase ribozyme fitness (log ratio)
1,G63A U116A,-3.92
2,A18U U21A G51C C53G C56A G57C C79U C115U U130G U131A,-5.86
3,C13A C49G,-1.06
4,G48U G71U,-1.01
5,U14G G71U,-2.33
6,U21A U59C C123A G128C,-2.93
7,C8A A46U G61A G117C,-2.38
8,C62U C86G G117A A119U,-0.588
9,G10A C64U,-0.954
10,G45C C53U G63C U116G,-3.05
11,G60A A84U C115A U131G,-0.704
12,C13G A24G G48A G63C C86G U109A,-6.58
13,G17A G48A A95C U112A C114A,-6.73
14,G77U U78A A118U,-3.74
15,U38G,-0.73
16,A29C G39C,-3.97
17,A26U G128C,-4.92
18,G51U G69U U87G,-0.427
19,C3U C101A G117U G135U,-4.63
20,C40G U125A,-1.17
21,A68G G113C,-4.28

row,Variant,polymerase ribozyme fitness (log ratio)
1,C13A G44C C124A,0.459
2,C64U U112C,0.999
3,A50U C56U C73U A83C,-1.69
4,G69C C101G G122A U125A,-3.83
5,C3G C70U C115U G127U,-4.54
6,A41C U92G G120U U129C,-2.62
7,G17C G42U C94U U106A,-5.2
8,C13G G58C C64U U92C,-3.39
9,G77U G113A G135A,-1.34
10,G44U G48A C114A,-2.35
11,C15U G36C A50C C72U C124G,-0.154
12,A43U A111C,-1.94
13,A43U C49A G51C C56G G63C U106A,-7.03
14,A37G G57A G110C,-5.28
15,C13U C97A,-3.93
16,C22U A41U C53U C56U G61U G110U A121C,-7.42
17,U78G C102U G110A,-4.35
18,C12A G47U,-2.48
19,C3U U30G C123A C124U,-5.14
20,C40U G44A C62U,-1.32
